Molecular target: Helicobacter pylori dimeric oxidoreductase DsbK (HP0231), native (Helicobacter pylori)
Test: SEC; size exclusion; conditions not shown (Supplementary Table S3)

Q: “Helicobacter pylori dimeric oxidoreductase DsbK (HP0231), native (enzyme)” was tested. Which stoichiometry N did it give?
A: 2

— paper PMC4960241
